Data from article PMC5612953, “Stable MOB1 interaction with Hippo/MST is not essential for development and tissue growth control” (Nature Communications, 2017).
Positions count from the first letter of the chain named. Numbers in names are those of the source.

T1: unphosphorylated full-length MOB1A(K104E/K105E), recombinant (human, UniProt Q9H8S9 1-216, K104E | K105E)
T1 sequence: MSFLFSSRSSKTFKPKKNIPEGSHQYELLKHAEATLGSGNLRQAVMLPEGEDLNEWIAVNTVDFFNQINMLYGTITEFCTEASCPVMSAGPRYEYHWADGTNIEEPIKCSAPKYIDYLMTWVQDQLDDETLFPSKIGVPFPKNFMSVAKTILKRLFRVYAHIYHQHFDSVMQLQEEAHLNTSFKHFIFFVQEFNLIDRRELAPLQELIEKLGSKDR

T2: phospho-MOB1(K104E/K105E), full length, recombinant (human, UniProt Q9H8S9 1-216, K104E | K105E, phosphorylated in vitro by MST2 (residues 2-308); the paper names Thr12 and Thr35 as the MST1/2 phosphorylation sites of MOB1)
T2 construct: human MOB1A, full length; source: E. coli, purified (Ni-NTA), then phosphorylated in vitro by MST2 (2-308)
T2 sequence (looked up): T1 sequence

T3: non-phosphorylated full-length MOB1A wild-type (human, UniProt Q9H8S9 1-216)
T3 construct: human MOB1A, full length; pET28a vector; also called unphosphorylated full-length MOB1; non-phosphorylated MOB1; source: E. coli, purified as MOB1A (33-216) (Ni-NTA)
T3 sequence (looked up): T1 sequence with E104K, E105K

T4: unphosphorylated full-length MOB1A(K104E/K105E), recombinant (human, UniProt Q9H8S9 1-216, K104E | K105E)
T4 construct: human MOB1A, full length; also called Unphosphorylated MOB1(K104E/K105E); MOB1(K104E/K104E); source: E. coli, purified as MOB1A (33-216) (Ni-NTA)
T4 sequence (looked up): T1 sequence

T5: human MOB1A (residues 33-216) (human, UniProt Q9H8S9 33-216)
T5 construct: human MOB1A, residues 33-216; modified pET28a vector; a zinc is associated with MOB1 in the structure; also called MOB1 (33-216); MOB1A (33-216); source: E. coli BL21(DE3), purified (Ni-NTA; complex by Superdex 200)
T5 sequence (looked up): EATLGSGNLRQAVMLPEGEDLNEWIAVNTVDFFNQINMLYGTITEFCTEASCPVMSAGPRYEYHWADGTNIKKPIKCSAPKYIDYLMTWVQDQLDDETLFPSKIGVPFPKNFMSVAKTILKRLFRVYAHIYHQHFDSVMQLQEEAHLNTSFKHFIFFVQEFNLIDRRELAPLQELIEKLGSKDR

T6: phospho-MOB1(K104E/K105E), full length, recombinant (human, UniProt Q9H8S9 1-216, K104E | K105E, phosphorylated in vitro by MST2 (residues 2-308); the paper names Thr12 and Thr35 as the MST1/2 phosphorylation sites of MOB1)
T6 sequence: T1 sequence

T7: human MST2 (residues 2-392) (human, UniProt Q13188 2-392)
T7 construct: human MST2, residues 2-392; also called MST2 (2-392); source: E. coli BL21(DE3), purified (Ni-NTA)
T7 sequence (looked up): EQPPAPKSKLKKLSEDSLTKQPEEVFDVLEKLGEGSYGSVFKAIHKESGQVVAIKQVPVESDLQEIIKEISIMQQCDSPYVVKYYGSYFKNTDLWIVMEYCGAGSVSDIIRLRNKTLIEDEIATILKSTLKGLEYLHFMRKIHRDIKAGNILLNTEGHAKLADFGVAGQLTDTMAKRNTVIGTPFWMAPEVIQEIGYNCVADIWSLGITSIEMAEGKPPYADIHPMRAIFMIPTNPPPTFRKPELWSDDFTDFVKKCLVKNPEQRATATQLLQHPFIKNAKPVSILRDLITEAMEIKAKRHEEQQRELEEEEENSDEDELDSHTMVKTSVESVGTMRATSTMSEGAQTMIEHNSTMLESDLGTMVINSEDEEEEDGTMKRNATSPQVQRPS

B1: human NDR2 (residues 25-88), N-terminal regulatory domain (NTR) (domain or fragment, UniProt Q9Y2H1 25-88, looked up)
chain: KLTLENFYSNLILQHEERETRQKKLEVAMEEEGLADEEKKLRRSQHARKETEFLRLKRTRLGLD
notes: human NDR2, residues 25-88 (NTR); also called NDR2 (25-88); NTR of NDR2; source: E. coli BL21(DE3), purified (Ni-NTA)
B2: recombinant full-length MOB1A(D63V) (natural protein, human, UniProt Q9H8S9 1-216, looked up)
chain: T1 sequence with D63V, E104K, E105K
notes: human MOB1A, full length; also called MOB1(D63V); source: E. coli, purified as MOB1A (33-216) (Ni-NTA)
B3: human LATS1 (residues 618-697) (domain or fragment, UniProt O95835 618-697, looked up)
chain: RKNKKDEERRESRIQSYSPQAFKFFMEQHVENVLKSHQQRLHRKKQLENEMMRVGLSQDAQDQMRKMLCQKESNYIRLKR
notes: human LATS1, residues 618-697; also called LATS1 (618-697); source: E. coli BL21(DE3), purified (Ni-NTA)

Columns and labels:
[1] = target: B2; assay: SEC; purified full-length MOB1 proteins incubated with NDR2 (25-88), LATS1 (618-697) or MST2 (2-392) at 4 °C for 20 min in assembly buffer (20 mM Tris pH 8.0, 200 mM NaCl, 5 mM DTT); HiLoad 16/60 Superdex 200; fractions by SDS-PAGE and Coomassie; for LATS1 MOB1A was first phosphorylated by MST2 (2-308); conditions: both partners purified
[2] = target: T1, unphosphorylated full-length …; assay: ITC
[3] = target: T2, phospho-MOB1(K104E/K105E), full length, …; assay: ITC; 25 °C, ITC200; 25 mM HEPES pH 7.5, 200 mM NaCl, 1 mM EDTA; ~240 μM MOB1A injected (20 x 2 μl) into ~24 μM NDR1, NDR2, LATS1 or LATS2 fragment in the cell; single-site model; conditions: both partners purified
[4] = target: T3, non-phosphorylated full-length MOB1A …; assay: as above; conditions: both partners purified
[5] = target: T4, unphosphorylated full-length …; assay: as above; conditions: both partners purified
[6] = target: T5, human MOB1A (residues 33-216); assay: crystal structure; MOB1A (33-216) and NDR2 (25-88) incubated 1:1 at 4 °C, complex purified on Superdex 200; crystals at 14 °C in 17% PEG 3350, 0.1 M HEPES pH 7.5, 150 mM magnesium chloride; 2.10 Å; conditions: both partners purified
[7] = target: T6, phospho-MOB1(K104E/K105E), full length, …; assay: ITC; phosphorylated MOB1
[8] = target: T7, human MST2 (residues 2-392); assay: SEC; purified full-length MOB1 proteins incubated with NDR2 (25-88), LATS1 (618-697) or MST2 (2-392) at 4 °C for 20 min in assembly buffer (20 mM Tris pH 8.0, 200 mM NaCl, 5 mM DTT); HiLoad 16/60 Superdex 200; fractions by SDS-PAGE and Coomassie; for LATS1 MOB1A was first phosphorylated by MST2 (2-308); conditions: both partners purified
[9] = target: T2, phospho-MOB1(K104E/K105E), full length, …; assay: as above; conditions: both partners purified

Binder: B1
binding result [1]: binds | Kd [2]: 16.9 µM | binding result [3]: binds | binding result [4]: binds | binding result [5]: binds | binding result [6]: binds | Kd [7]: 0.532 µM

Binder: B2
binding result [8]: binds

Binder: B3
binding result [9]: binds
